Experimental data as given in patent publication US20240270821A1, “GIP/GLP1/GCG TRI-RECEPTOR AGONISTS AND USES THEREOF” (priority 2023, published 2024).

How the values were obtained:
Test in all cases: cell-based or functional assay
[1] = biological target: human glucagon receptor (human) (UniProt P47871)
[2] = biological target: T1, human GIP receptor (human) (UniProt P48546)
T1 sequence (looked up): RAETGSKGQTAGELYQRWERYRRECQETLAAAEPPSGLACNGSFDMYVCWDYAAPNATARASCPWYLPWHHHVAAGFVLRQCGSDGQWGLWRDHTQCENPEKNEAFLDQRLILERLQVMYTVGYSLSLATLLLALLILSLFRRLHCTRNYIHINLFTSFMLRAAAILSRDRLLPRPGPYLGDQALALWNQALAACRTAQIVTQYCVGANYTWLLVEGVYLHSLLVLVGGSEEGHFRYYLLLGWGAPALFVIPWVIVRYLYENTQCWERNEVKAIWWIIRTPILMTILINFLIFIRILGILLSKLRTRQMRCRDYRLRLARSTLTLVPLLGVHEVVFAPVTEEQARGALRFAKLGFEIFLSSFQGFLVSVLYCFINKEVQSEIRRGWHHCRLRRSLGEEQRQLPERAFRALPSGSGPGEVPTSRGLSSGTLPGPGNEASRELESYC

hGLP-1R = hGLP-1R (Homo sapiens, UniProt P43220)
hGLP-1R, sequence (P43220 24-463): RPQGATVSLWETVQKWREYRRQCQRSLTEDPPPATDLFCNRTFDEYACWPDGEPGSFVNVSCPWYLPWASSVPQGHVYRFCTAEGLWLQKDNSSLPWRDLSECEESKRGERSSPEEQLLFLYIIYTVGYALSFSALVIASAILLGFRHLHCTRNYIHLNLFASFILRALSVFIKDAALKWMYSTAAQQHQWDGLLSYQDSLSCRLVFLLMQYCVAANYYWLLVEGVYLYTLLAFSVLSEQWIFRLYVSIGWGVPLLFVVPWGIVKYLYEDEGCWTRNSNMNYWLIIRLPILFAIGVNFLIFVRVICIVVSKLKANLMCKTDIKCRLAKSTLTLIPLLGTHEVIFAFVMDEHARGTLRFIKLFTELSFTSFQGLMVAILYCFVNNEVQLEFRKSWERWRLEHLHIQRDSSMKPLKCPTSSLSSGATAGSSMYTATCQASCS

human glucagon receptor (human), sequence (P47871 26-477): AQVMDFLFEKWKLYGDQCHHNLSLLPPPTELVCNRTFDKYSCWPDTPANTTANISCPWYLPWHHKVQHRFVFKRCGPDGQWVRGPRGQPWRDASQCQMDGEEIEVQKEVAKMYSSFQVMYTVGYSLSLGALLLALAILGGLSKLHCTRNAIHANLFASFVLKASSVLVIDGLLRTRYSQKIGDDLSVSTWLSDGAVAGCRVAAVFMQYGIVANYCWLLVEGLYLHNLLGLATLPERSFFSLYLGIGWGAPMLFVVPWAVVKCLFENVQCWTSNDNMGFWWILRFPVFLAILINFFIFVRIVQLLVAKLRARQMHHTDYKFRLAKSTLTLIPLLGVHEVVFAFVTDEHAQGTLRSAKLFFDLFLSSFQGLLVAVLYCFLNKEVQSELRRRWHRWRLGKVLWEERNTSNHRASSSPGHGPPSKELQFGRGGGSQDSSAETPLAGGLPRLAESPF

B1: Example 891 (peptide)
chain: YXQGTFTSDXSQXLDKKAQXAFIEYLIEXGPSSGAPPPSGSGE
modifications: not fully specified; possible C-terminal amide; synthetic construct; SITE 2: note = 2-Aminoisobutyric Acid; SITE 10: note = 3-(4-Pyridyl)-L-alanine; SITE 13: note = alpha-methyl-leucine; SITE 17: note = Lysine is chemically modified through conjugation of the epsilon-amino group of the Lysine side chain with (gamma-Glu)2-CO-(CH2)16-CO2H; SITE 20:
B1 was tested, and the Relative cAMP EC50 [1] was 3.14 nM, the Relative cAMP EC50 [2] was 0.155 nM and the Relative cAMP EC50 (hGLP-1R) was 3.25 nM.

B2: Example 937 (peptide)
chain: YXQGTFTSDXSQXLDXKAQXAFIEYLIEXGPSSGAPPPSGSEE
modifications: synthetic construct; SITE 2: note = 2-Aminoisobutyric Acid; SITE 10: note = 3-(4-Pyridyl)-L-alanine; SITE 13: note = alpha-methyl-leucine; SITE 16: note = L-ornithine; SITE 17: note = Lysine is chemically modified through conjugation of the epsilon-amino group of the Lysine side chain with (gamma-Gl)
Work on B2 yielded a Relative cAMP EC50 [1] of 5.52 nM, a Relative cAMP EC50 [2] of 0.222 nM and a Relative cAMP EC50 (hGLP-1R) of 2.52 nM.

B3: Example 938 (peptide)
chain: YXQGTFTSDXSQXLDKKAQXAFIEXLLEGGPSSGAPPPSGS
modifications: synthetic construct; SITE 2: note = 2-Aminoisobutyric Acid; SITE 10: note = 3-(4-Pyridyl)-L-alanine; SITE 13: note = alpha-methyl-leucine; SITE 17: note = Lysine is chemically modified through conjugation of the epsilon-amino group of the Lysine side chain with (gamma-Glu)2-CO-(CH2)16-CO2H; SITE 20:
B3 gave a Relative cAMP EC50 [1] of 13.3 nM, a Relative cAMP EC50 [2] of 0.13 nM and a Relative cAMP EC50 (hGLP-1R) of 1.84 nM.

B4: Example 941 (peptide)
chain: YXQGTFTSDXSXXLDKKAQXAFIEXLIEGGPSSGAPPPSGS
modifications: synthetic construct; SITE 2: note = 2-Aminoisobutyric Acid; SITE 10: note = 3-(4-Pyridyl)-L-alanine; SITE 12: note = L-ornithine; SITE 13: note = alpha-methyl-leucine; SITE 17: note = Lysine is chemically modified through conjugation of the epsilon-amino group of the Lysine side chain with (gamma-Gl)
B4 was tested, and the Relative cAMP EC50 [1] was 11.7 nM, the Relative cAMP EC50 [2] was 0.183 nM and the Relative cAMP EC50 (hGLP-1R) was 0.764 nM.

B5: Example 942 (peptide)
chain: YXQGTFTSDXSXXLDKKAQXAFIEXLLEGGPSSGAPPPSGS
modifications: synthetic construct; SITE 2: note = 2-Aminoisobutyric Acid; SITE 10: note = 3-(4-Pyridyl)-L-alanine; SITE 12: note = L-ornithine; SITE 13: note = alpha-methyl-leucine; SITE 17: note = Lysine is chemically modified through conjugation of the epsilon-amino group of the Lysine side chain with (gamma-Gl)
B5 was tested, and the Relative cAMP EC50 [1] was 6.32 nM, the Relative cAMP EC50 [2] was 0.188 nM and the Relative cAMP EC50 (hGLP-1R) was 3.52 nM.

B6: Example 944 (peptide)
chain: YXQGTFTSDXSXXLDKKAQXAFIEXLLEGGPSSGAPPPSGSEE
modifications: synthetic construct; SITE 2: note = 2-Aminoisobutyric Acid; SITE 10: note = 3-(4-Pyridyl)-L-alanine; SITE 12: note = L-ornithine; SITE 13: note = alpha-methyl-leucine; SITE 17: note = Lysine is chemically modified through conjugation of the epsilon-amino group of the Lysine side chain with (gamma-Gl)
Work on B6 yielded a Relative cAMP EC50 [1] of 6.16 nM, a Relative cAMP EC50 [2] of 0.216 nM and a Relative cAMP EC50 (hGLP-1R) of 4.86 nM.

B7: Example 945 (peptide)
chain: YXQGTFTSDXSQXLDKKAQXAFIEXLLEGGPSSGAPPPSGSEE
modifications: synthetic construct; SITE 2: note = 2-Aminoisobutyric Acid; SITE 10: note = 3-(4-Pyridyl)-L-alanine; SITE 13: note = alpha-methyl-leucine; SITE 17: note = Lysine is chemically modified through conjugation of the epsilon-amino group of the Lysine side chain with (gamma-Glu)2-CO-(CH2)16-CO2H; SITE 20:
Work on B7 yielded a Relative cAMP EC50 [1] of 18 nM, a Relative cAMP EC50 [2] of 0.246 nM and a Relative cAMP EC50 (hGLP-1R) of 3.9 nM.

B8: Example 946 (peptide)
chain: YXQGTFTSDXSQXLDXKAQXAFIEXLLEGGPSSGAPPPSGSEE
modifications: synthetic construct; SITE 2: note = 2-Aminoisobutyric Acid; SITE 10: note = 3-(4-Pyridyl)-L-alanine; SITE 13: note = alpha-methyl-leucine; SITE 16: note = L-ornithine; SITE 17: note = Lysine is chemically modified through conjugation of the epsilon-amino group of the Lysine side chain with (gamma-Gl)
B8 showed a Relative cAMP EC50 [1] of 16.5 nM, a Relative cAMP EC50 [2] of 0.353 nM and a Relative cAMP EC50 (hGLP-1R) of 2.05 nM.

B9: Example 1107 (peptide)
chain: YXQGTFTSDXSQXLDXKAQXAFIEXLIAXGPSSGAPPPSGSEE
modifications: non-natural residues, lipidated Lys, C-terminal amide; synthetic construct; SITE 2: note = 2-Aminoisobutyric Acid; SITE 10: note = 3-(4-Pyridyl)-L-alanine; SITE 13: note = alpha-methyl-leucine; SITE 16: note = L-ornithine; SITE 17: note = Lysine is chemically modified through conjugation of the epsilon-amino group of the Lysine side chain with (gamma-Gl)
B9 gave a Relative cAMP EC50 [1] of 5.66 nM, a Relative cAMP EC50 [2] of 0.0447 nM and a Relative cAMP EC50 (hGLP-1R) of 0.51 nM.

B10: Example 1108 (peptide)
chain: YXQGTFTSDXSQXLDXKAQXAFIEXLIEXGPSSGAPPPSGSEE
modifications: non-natural residues; C18 diacid-γGlu-AEEA on Lys; C-terminal amide; synthetic construct; SITE 2: note = 2-Aminoisobutyric Acid; SITE 10: note = 3-(4-Pyridyl)-L-alanine; SITE 13: note = alpha-methyl-leucine; SITE 16: note = L-ornithine; SITE 17: note = Lysine is chemically modified through conjugation of the epsilon-amino group of the Lysine side chain with (2-[2-(2-
B10 gave a Relative cAMP EC50 [1] of 4.96 nM, a Relative cAMP EC50 [2] of 0.0507 nM and a Relative cAMP EC50 (hGLP-1R) of 0.752 nM.

B11: Example 1109 (peptide)
chain: YXQGTFTSDXSQXLDXKAQXQFIEXLIEXGPSSGAPPPSGSEE
modifications: Aib, 4Pal, αMeL, Orn, Me4Pal, αMeY; acylated lysine; amide; synthetic construct; SITE 2: note = 2-Aminoisobutyric Acid; SITE 10: note = 3-(4-Pyridyl)-L-alanine; SITE 13: note = alpha-methyl-leucine; SITE 16: note = L-ornithine; SITE 17: note = Lysine is chemically modified through conjugation of the epsilon-amino group of the Lysine side chain with (2-[2-(2-
In the case of B11, the Relative cAMP EC50 [1] is reported as 10.8 nM, the Relative cAMP EC50 [2] is reported as 0.0626 nM and the Relative cAMP EC50 (hGLP-1R) is reported as 2.3 nM.

B12: Example 1110 (peptide)
chain: YXQGTFTSDXSQXLDXKAQXAFIEXLIAXGPSSGAPPPSGSEE
modifications: non-natural residues, acylated Lys, C-terminal amide; synthetic construct; SITE 2: note = 2-Aminoisobutyric Acid; SITE 10: note = 3-(4-Pyridyl)-L-alanine; SITE 13: note = alpha-methyl-leucine; SITE 16: note = L-ornithine; SITE 17: note = Lysine is chemically modified through conjugation of the epsilon-amino group of the Lysine side chain with (2-[2-(2-
Work on B12 yielded a Relative cAMP EC50 [1] of 5.91 nM, a Relative cAMP EC50 [2] of 0.059 nM and a Relative cAMP EC50 (hGLP-1R) of 0.508 nM.

B13: Example 1112 (peptide)
chain: YXQGTFTSDXSQXLDXKAQXAFIEXLIEXGPSSGAPPPSGSEE
modifications: non-natural residues; acylated Lys; C-terminal amide; synthetic construct; SITE 2: note = 2-Aminoisobutyric Acid; SITE 10: note = 3-(4-Pyridyl)-L-alanine; SITE 13: note = alpha-methyl-leucine; SITE 16: note = L-ornithine; SITE 17: note = Lysine is chemically modified through conjugation of the epsilon-amino group of the Lysine side chain with D-Glutami
In the case of B13, the Relative cAMP EC50 [1] is reported as 10.7 nM, the Relative cAMP EC50 [2] is reported as 0.254 nM and the Relative cAMP EC50 (hGLP-1R) is reported as 0.957 nM.

B14: Example 1113 (peptide)
chain: YXQGTFTSDXSQXLDXKAQXQFIEXLIEXGPSSGAPPPSGSEE
modifications: non-natural residues; lipidated Lys; C-terminal amide; synthetic construct; SITE 2: note = 2-Aminoisobutyric Acid; SITE 10: note = 3-(4-Pyridyl)-L-alanine; SITE 13: note = alpha-methyl-leucine; SITE 16: note = L-ornithine; SITE 17: note = Lysine is chemically modified through conjugation of the epsilon-amino group of the Lysine side chain with D-Glutami
Binder B14 has a Relative cAMP EC50 [1] of 14.4 nM, a Relative cAMP EC50 [2] of 0.0414 nM and a Relative cAMP EC50 (hGLP-1R) of 1.12 nM.

B15: Example 1114 (peptide)
chain: YXQGTFTSDXSQXLDXKAQXAFIEXLIAXGPSSGAPPPSGSEE
modifications: not fully specified; Aib, 4Pal, αMeL, Orn, Me4Pal, αMeY; γGlu-C18 diacid Lys; C-term amide; synthetic construct; SITE 2: note = 2-Aminoisobutyric Acid; SITE 10: note = 3-(4-Pyridyl)-L-alanine; SITE 13: note = alpha-methyl-leucine; SITE 16: note = L-ornithine; SITE 17: note = Lysine is chemically modified through conjugation of the epsilon-amino group of the Lysine side chain with D-Glutami
B15 showed a Relative cAMP EC50 [1] of 11.5 nM, a Relative cAMP EC50 [2] of 0.0478 nM and a Relative cAMP EC50 (hGLP-1R) of 0.84 nM.

B16: Example 1116 (peptide)
chain: YXQGTFTSDXSQXLDKKAQXAFIEXLIEXGPSSGAPPPSGTE
modifications: acylated Lys AEEA-γGlu-C18 diacid; non-natural residues; C-terminal amide; synthetic construct; SITE 2: note = 2-Aminoisobutyric Acid; SITE 10: note = 3-(4-Pyridyl)-L-alanine; SITE 13: note = alpha-methyl-leucine; SITE 17: note = Lysine is chemically modified through conjugation of the epsilon-amino group of the Lysine side chain with (2-[2-(2-Amino-ethoxy)-ethoxy]-acetyl)
B16 gave a Relative cAMP EC50 [1] of 8.2 nM, a Relative cAMP EC50 [2] of 0.134 nM and a Relative cAMP EC50 (hGLP-1R) of 4.63 nM.

B17: Example 1117 (peptide)
chain: YXQGTFTSDXSQXLDKKAQXAFIEXLIEXGPSSGAPPPSGTGE
modifications: non-natural residues; Lys acylated AEEA-γGlu-C18 diacid; C-terminal amide; synthetic construct; SITE 2: note = 2-Aminoisobutyric Acid; SITE 10: note = 3-(4-Pyridyl)-L-alanine; SITE 13: note = alpha-methyl-leucine; SITE 17: note = Lysine is chemically modified through conjugation of the epsilon-amino group of the Lysine side chain with (2-[2-(2-Amino-ethoxy)-ethoxy]-acetyl)
B17 gave a Relative cAMP EC50 [1] of 4.93 nM, a Relative cAMP EC50 [2] of 0.124 nM and a Relative cAMP EC50 (hGLP-1R) of 3.51 nM.

B18: Example 1118 (peptide)
chain: YXQGTFTSDXSQXLDKKAQXAFIEXLIEXGPSSGAPPPSGTE
modifications: Lys acylated with (γGlu)2-C18 diacid; non-natural residues; C-amide; synthetic construct; SITE 2: note = 2-Aminoisobutyric Acid; SITE 10: note = 3-(4-Pyridyl)-L-alanine; SITE 13: note = alpha-methyl-leucine; SITE 17: note = Lysine is chemically modified through conjugation of the epsilon-amino group of the Lysine side chain with (gamma-Glu)2-CO-(CH2)16-CO2H; SITE 20:
Binder B18 has a Relative cAMP EC50 [1] of 6.52 nM, a Relative cAMP EC50 [2] of 0.128 nM and a Relative cAMP EC50 (hGLP-1R) of 5.42 nM.

B19: Example 1119 (peptide)
chain: YXQGTFTSDXSQXLDKKAQXAFIEXLIEXGPSSGAPPPSGTGE
modifications: Aib, 4Pal, αMeL, Me4Pal; acylated Lys; C-terminal amide; synthetic construct; SITE 2: note = 2-Aminoisobutyric Acid; SITE 10: note = 3-(4-Pyridyl)-L-alanine; SITE 13: note = alpha-methyl-leucine; SITE 17: note = Lysine is chemically modified through conjugation of the epsilon-amino group of the Lysine side chain with (gamma-Glu)2-CO-(CH2)16-CO2H; SITE 20:
B19 was tested, and the Relative cAMP EC50 [1] was 7.61 nM, the Relative cAMP EC50 [2] was 0.0939 nM and the Relative cAMP EC50 (hGLP-1R) was 3.57 nM.
